Publication PMC11098500
Several values for one entry are separate records, joined by “and”; a condition that tells them apart may be missing. Equal entries are not always repeated.

How the values were obtained:
[1] = target: domestic dog ACE2 ectodomain (residues 1-614), Fc-tagged (domestic dog); experiment: SPR
[2] = target: raccoon dog ACE2 ectodomain (residues 1-614), Fc-tagged (raccoon dog) (UniProt B4XEP4); experiment: SPR

| Substance | Kd [1] | Kd [2] |
| --- | --- | --- |
| SARS-CoV-2 RBD (residues 319-529), His-tagged (from UniProt P0DTC2 319-529) (domain or fragment) | 468 nM | – |
| SARS-CoV-2 RBD (prototypic strain, residues 319-529), His-tagged (from UniProt P0DTC2 319-529) (domain or fragment) | 518 nM and 524 nM and 361 nM | 297 nM and 449 nM and 450 nM |
